According to patent US20220324956A1:

Key:
[1] = substrate: OPN antigen peptide YGLRSKS labeled with biotin (mouse and human (same sequence around the thrombin cleavage site)); assay: direct ELISA, biotinylated peptide on avidin-coated plate, purified IgG serially diluted, 4-parameter fit
[2] = target: recombinant human osteopontin protein (GST-OPN-his, purified in house) (human) (UniProt P10451); assay: cell-based or functional assay
Chain of UniProt P10451 (P10451 17-314): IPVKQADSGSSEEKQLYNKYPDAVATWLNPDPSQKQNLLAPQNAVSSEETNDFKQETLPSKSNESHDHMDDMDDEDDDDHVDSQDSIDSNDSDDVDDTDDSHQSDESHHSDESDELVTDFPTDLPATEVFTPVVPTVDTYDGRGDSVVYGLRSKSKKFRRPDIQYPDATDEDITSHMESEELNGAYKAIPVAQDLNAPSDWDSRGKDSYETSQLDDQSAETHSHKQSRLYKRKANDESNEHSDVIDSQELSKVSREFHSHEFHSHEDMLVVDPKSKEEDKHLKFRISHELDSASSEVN

Row | Binder | EC50 [1] [ng/mL] | % inhibition of thrombin cleavage of human OPN-FL (OPN-R generated, OPN-R specific ELISA) [2] [%]
1 | A2 rabbit monoclonal anti-osteopontin antibody (antibody, V domains shown) VH: QSVKESEGGLFKPTDTLTLTCKASGFTVSSYDMGWLRQAPGNGLESIGAIGSDGSEYYVSWARGRTAITRNTNQNTVTLKMTSLTAADTATYFCARDSHYSYGYDYDIWGPGTLVTVSS VL: QVLTQTPSPVSAAVGGTVSISCQSSQSIYSNYLSWYQQKPGQPPKLLIYYASTLASGVPSRFKGSGSGTQFTLTISGVQCDDAATYYCQGTYYVTGWYDAFGGGTEVVVKG | 2.6 | 82
2 | A6 rabbit monoclonal anti-osteopontin antibody (antibody, V domains shown) VH: QSVKESEGGLFKPTDTLTLTCKASGFTVSSYDMGWLRQAPGNGLESIGAIGSDGSEYYVSWARGRTTITRNTNQNTVTLKMTSLTAADTATYFCARDSHYSYGYDYDIWGPGTLVTVSS VL: QVLTQTPSPVSAAVGGTVSISCQSSQSIYSNYLSWYQQKPGQPPKLLIYYASTLASGVPSRFKGSGSGTQFTLTISGVQCDDAATYYCQGTYYVTGWYDAFGGGTEVVVKG | 3.2 | 95.4
3 | G7 rabbit monoclonal anti-osteopontin antibody (antibody, V domains shown) VH: QSVKESEGGLFKPTDTLTLTCTVSGFSLSSYGVSWVRQAPGNGLEWIGFIDKYGRTHYASWAKSRSTITRNTNENTVTLKMTSLTAADTATFLCARDDYRPAYGFDIWGPGTLVTVSS VL: QVLTQTASPVSAAVGSTVTINCQASQSVYNNNWLSWFQQKPGQPPKQLIYGASTLPSGVSSRFKGSGSGTQFTLTISDVQCDDAATYYCLGGYHWSTADCNVFGGGTEVVVKG | 93.2 | 60.1
